The source of these data is doi:10.1101/2023.08.07.552315 (bioRxiv, 2023).

Test [1] addresses Mis12C/KNL1^2026-2342 complex (human) (UniProt Q9H081). Description: BLI. Background: Biolayer interferometry detects binding as a change in optical thickness at a sensor tip.
The target in test [2] is Mis12 complex (full length; MIS12, PMF1, NSL1, DSN1) (human) (UniProt Q9H081). Kind of test: BLI.
Test [3] has the same target. Kind of test: ITC. (In general: Isothermal titration calorimetry measures the heat released or taken up as one component is titrated into another.)
In test [4] the target is T1, NSL1 (subunit of the Mis12 complex in the KMN cryo-EM sample) (human, UniProt Q96IY1 1-281).
T1 sequence (looked up): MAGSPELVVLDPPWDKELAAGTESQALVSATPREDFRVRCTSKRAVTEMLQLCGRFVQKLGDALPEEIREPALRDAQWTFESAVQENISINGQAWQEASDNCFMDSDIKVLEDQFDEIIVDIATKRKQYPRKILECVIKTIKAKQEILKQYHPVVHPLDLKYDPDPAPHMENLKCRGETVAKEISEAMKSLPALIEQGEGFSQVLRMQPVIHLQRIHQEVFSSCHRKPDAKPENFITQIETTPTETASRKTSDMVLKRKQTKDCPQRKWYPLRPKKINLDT
Description: cryo-EM structure.

In test [5] the target is T2, DSN1 (subunit of the Mis12 complex in the KMN cryo-EM sample) (human, UniProt Q9H410 1-356).
T2 sequence (looked up): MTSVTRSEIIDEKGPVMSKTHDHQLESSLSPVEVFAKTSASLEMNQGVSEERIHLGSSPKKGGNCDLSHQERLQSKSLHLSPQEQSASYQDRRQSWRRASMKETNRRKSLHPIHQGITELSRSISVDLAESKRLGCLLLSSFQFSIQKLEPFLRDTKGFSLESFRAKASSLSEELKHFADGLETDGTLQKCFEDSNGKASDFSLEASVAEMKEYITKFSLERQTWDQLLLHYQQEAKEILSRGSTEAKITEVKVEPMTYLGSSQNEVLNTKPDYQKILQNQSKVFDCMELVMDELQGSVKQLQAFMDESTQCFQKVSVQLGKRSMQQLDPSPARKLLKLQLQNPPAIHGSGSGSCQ
Description: cryo-EM structure.

The target of test [6] is Mis12 complex mutant Mis12C^M4 (human) (UniProt Q9H081). Description: ITC.
The target of test [7] is Mis12 complex mutant Mis12C^M3 (human) (UniProt Q9H081). Description: ITC.
Another test has as its target T3, SPC25 residues 92-224 (human, UniProt Q9HBM1 92-224).
T3 sequence (looked up): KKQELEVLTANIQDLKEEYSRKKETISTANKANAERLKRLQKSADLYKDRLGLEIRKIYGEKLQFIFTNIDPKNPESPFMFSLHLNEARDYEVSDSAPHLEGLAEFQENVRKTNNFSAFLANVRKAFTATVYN
Kind of test: cryo-EM structure.

Test [8] has as its target Ndc80 complex (NDC80/HEC1, NUF2, SPC24, SPC25) (human, UniProt O14777 1-642; Q9BZD4 1-464; Q8NBT2 1-197; Q9HBM1 1-224). Kind of test: BLI.

Chain of Ndc80 complex (NDC80/HEC1, NUF2, SPC24, SPC25) (O14777 whole entry, chain 1 of 2): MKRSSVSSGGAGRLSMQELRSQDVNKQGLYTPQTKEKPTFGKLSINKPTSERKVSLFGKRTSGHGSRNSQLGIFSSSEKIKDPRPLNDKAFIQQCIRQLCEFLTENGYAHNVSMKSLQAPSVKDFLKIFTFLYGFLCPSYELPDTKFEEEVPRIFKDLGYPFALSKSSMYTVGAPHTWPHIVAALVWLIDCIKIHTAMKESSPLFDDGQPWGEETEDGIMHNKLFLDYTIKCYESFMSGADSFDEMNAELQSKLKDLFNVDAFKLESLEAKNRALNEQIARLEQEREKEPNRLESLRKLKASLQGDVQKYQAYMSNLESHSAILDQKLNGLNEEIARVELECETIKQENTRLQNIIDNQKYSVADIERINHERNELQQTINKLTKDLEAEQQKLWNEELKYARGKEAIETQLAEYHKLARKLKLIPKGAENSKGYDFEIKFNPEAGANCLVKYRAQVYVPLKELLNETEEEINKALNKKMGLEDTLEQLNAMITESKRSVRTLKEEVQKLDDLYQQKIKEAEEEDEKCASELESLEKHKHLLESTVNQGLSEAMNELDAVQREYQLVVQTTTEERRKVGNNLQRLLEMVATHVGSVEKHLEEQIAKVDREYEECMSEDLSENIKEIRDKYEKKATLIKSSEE
Chain of Ndc80 complex (NDC80/HEC1, NUF2, SPC24, SPC25) (Q9BZD4 whole entry, chain 2 of 2): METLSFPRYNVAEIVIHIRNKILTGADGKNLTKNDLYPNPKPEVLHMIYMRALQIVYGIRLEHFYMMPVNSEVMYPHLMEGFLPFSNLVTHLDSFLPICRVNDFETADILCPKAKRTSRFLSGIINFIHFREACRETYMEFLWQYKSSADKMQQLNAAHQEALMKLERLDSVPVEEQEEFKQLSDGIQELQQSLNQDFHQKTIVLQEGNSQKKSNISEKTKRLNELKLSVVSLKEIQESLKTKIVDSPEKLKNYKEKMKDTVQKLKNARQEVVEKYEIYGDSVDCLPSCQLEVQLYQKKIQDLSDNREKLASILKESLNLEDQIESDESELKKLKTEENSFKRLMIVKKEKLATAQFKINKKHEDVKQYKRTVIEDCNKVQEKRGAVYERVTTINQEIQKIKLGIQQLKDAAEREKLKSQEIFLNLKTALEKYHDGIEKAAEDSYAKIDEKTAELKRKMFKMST

One may read the Kd as the concentration at which binding is half-saturated. The koff is a measure of how fast the partners let go of each other. A higher koff goes with a short-lived complex. Consider “Ndc80 complex (NDC80/HEC1, NUF2, SPC24, SPC25) (from UniProt O14777 1-642; Q9BZD4 1-464; Q8NBT2 1-197; Q9HBM1 1-224)”, for which, in [1], the Kd came to 1 nM and the koff was 0.0001 s⁻¹.

On to “KNL1 residues 2026-2342 (domain or fragment)”, for which the Kd in test [2] was determined as 2 nM; in test [3], 1.6 nM.

B1: SPC24^109-197/SPC25^92-224 dimer (complex, human)
chain 1: EELKEIEADLERQEKEVDEDTTVTIPSAVYVAQLYHQVSKIEWDYECEPGMVKGIHHGPSVAQPIHLDSTQLSRKFISDYLWSLVDTEW
chain 2: T3 sequence (looked up)
B1: the binding result in test [4] and in test [5] was “binds” each time. The values for the fold reduction of the binding affinity against wild-type Mis12C in test [6] and in test [7] were 10 fold and 20 fold, respectively.

B2: SPC24 residues 109-197 (domain or fragment, human, UniProt Q8NBT2 109-197, looked up)
chain: B1 chain 1
Take B2: the binding result with SPC25 residues 92-224 is on record as “binds”.

B3: Mis12 complex (full length; MIS12, PMF1, NSL1, DSN1) (complex, human)
chain 1: MSVDPMTYEAQFFGFTPQTCMLRIYIAFQDYLFEVMQAVEQVILKKLDGIPDCDISPVQIRKCTEKFLCFMKGHFDNLFSKMEQLFLQLILRIPSNILLPEDKCKETPYSEEDFQHLQKEIEQLQEKYKTELCTKQALLAELEEQKIVQAKLKQTLTFFDELHNVGRDHGTSDFRESLVSLVQNSRKLQNIRDNVEKESKRLKIS
chain 2: MAEASSANLGSGCEEKRHEGSSSESVPPGTTISRVKLLDTMVDTFLQKLVAAGSYQRFTDCYKCFYQLQPAMTQQIYDKFIAQLQTSIREEISDIKEEGNLEAVLNALDKIVEEGKVRKEPAWRPSGIPEKDLHSVMAPYFLQQRDTLRRHVQKQEAENQQLADAVLAGRRQVEELQLQVQAQQQAWQALHREQRELVAVLREPE
chain 3: T1 sequence (looked up)
chain 4: T2 sequence (looked up)
In [8], B3 came in with a Kd of about 6 nM and a koff of about 0.0001 s⁻¹.
